Kd data for 18 molecules are collected here from patent publication US20030114404, “Vascular endothelial growth factor (VEGF) nucleic acid ligand complexes” (Gilead Sciences, Inc., published 2003).

Where a chain is given by its changes, count along the chain named.

Sequences and labels used below:
B1: VP30.27 (ssRNA)
RNA: GGGAGGACGAUGCGGAAGAAUUGGAUAUAUCGUUCACCCCCACCUCAGACGACUCGCCCGA
modifications: 2'-F pyrimidines
B2: VP30.11 (ssRNA)
RNA: GGGAGGACGAUGCGGUCAGGAACGGAAUUUUUGGAGACACGCCCUCAGACGACUCGCCCGA
modifications: 2'-F pyrimidines
B3: VT30.54 (ssRNA)
RNA: GGGAGGACGAUGCGGGACUAGGUGAAUGCCAAUAUUCUUCUCCGUCAGACGACUCGCCCGA
modifications: 2'-F pyrimidines
B4: VT30.11 (ssRNA)
RNA: GGGAGGACGAUGCGGAAUCAGUGAAUGCUUAUAGCUCCCGCGUCCUCAGACGACUCGCCCGA
modifications: 2'-F pyrimidines
B5: VP30.25 (ssRNA)
RNA: GGGAGGACGAUGCGGCGGGAUUUUGGAAGAAUUGGAUAUUGGCCUCAGACGACUCGCCCGA
modifications: 2'-F pyrimidines
B6: VT30.15 (ssRNA)
RNA: GGGAGGACGAUGCGGAACCAGUGAAUGCUUAUAAGACUGCUCGUCAGACGACUCGCCCGA
modifications: 2'-F pyrimidines
B7: VP30.18 (ssRNA)
RNA: GGGAGGACGAUGCGGAUCCAUCAUUUAACCGUUUGCUCUCCCCCUCAGACGACUCGCCCGA
modifications: 2'-F pyrimidines
B8: VT30.44 (ssRNA)
RNA: GGGAGGACGAUGCGGAAUCAGUGAAUGCUUAUACAUCCGCUCGGUCAGACGACUCGCCCGA
modifications: 2'-F pyrimidines
B9: VP30.6 (ssRNA)
RNA: GGGAGGACGAUGCGGAACGGAAUUCUUGGAUACACACCUCGUCCUCAGACGACUCGCCCGA
modifications: 2'-F pyrimidines
B10: VT30.41 (ssRNA)
RNA: GGGAGGACGAUGCGGCAGGGUGAAUGCCAAUGUACUUUUCGCGUCAGACGACUCGCCCGA
modifications: 2'-F pyrimidines
B11: VP30.19 (ssRNA)
RNA: GGGAGGACGAUGCGGCACUUUAGAAGAAUUGAAUUUCCCGCUGGUCAGACGACUCGCCCGA
modifications: 2'-F pyrimidines
B12: VP30.1 (ssRNA)
RNA: GGGAGGACGAUGCGGUCUUUGAGUUUUUGCCAACGGUUUUCGCUCAGACGACUCGCCCGA
modifications: 2'-F pyrimidines
B13: VP30.14 (ssRNA)
RNA: GGGAGGACGAUGCGGACUGGGAGAAUCCGAAAAACCUUCACGCGUCAGACGACUCGCCCGA
modifications: 2'-F pyrimidines
B14: VT30.2 (ssRNA)
RNA: GGGAGGACGAUGCGGAUCAGUGAAUGCUUAUAGACCGCCUCCGUCAGACGACUCGCCCGA
modifications: 2'-F pyrimidines
B15: VT30.1 (ssRNA)
RNA: GGGAGGACGAUGCGGAACUAGUGAAUGCUUAUACGACCGUGUUGUCAGACGACUCGCCCGA
modifications: 2'-F pyrimidines
B16: VT30.29 (ssRNA)
RNA: B8 RNA with C34G, A35C, U41G, C42U
modifications: 2'-F pyrimidines
B17: VT30.28 (ssRNA)
RNA: GGGAGGACGAUGCGGAGAAUCAGUGAAUGCUUAUAAACCUCGUGUCAGACGACUCGCCCGA
modifications: 2'-F pyrimidines
B18: VT30.21 (ssRNA)
RNA: GGGAGGACGAUGCGGAUCAGUGAAUGCUUAUAGACCGUAUUGCGUCAGACGACUCGCCCGA
modifications: 2'-F pyrimidines

The target in the data set is VEGF165 (Homo sapiens, UniProt P15692-4 P15692-4:27-191). Description: filter; 37 C. The settings on record: tags: carrier-free, Sf 21 insect cell expressed, R & D Systems; chain copies: 2 (inferred). The method, then: Nucleic Acid Ligands radiolabeled during transcription by incorporation of α-[³²P]-labeled NTPs, or after synthesis using γ-[³²P]-ATP and T4 polynucleotide kinase, were incubated in low concentration (between 20 and 70 pM) with varying concentrations of VEGF or other growth factors at 37° C. for 15 minutes. Incubations were in TBS, PBS, or HEPES-buffered saline (HBS), pH 7.4, with or without the addition of supplemental divalent cations. Samples were passed through prewashed 0.45 μ Type HA filters (Millipore) followed by a 5-10 ml wash with binding buffer. Filters were immersed in scintillant and counted to quantitate the amount of protein-bound RNA retained by each filter. The equilibrium dissociation constant (KD) of Nucleic Acid Ligand binding to a specific protein was calculated from the data points as described in Green et al. (1996) Biochem. 35: 14413-14424.
Chain of VEGF165 (P15692 other isoform, or with tags, fused parts or gaps): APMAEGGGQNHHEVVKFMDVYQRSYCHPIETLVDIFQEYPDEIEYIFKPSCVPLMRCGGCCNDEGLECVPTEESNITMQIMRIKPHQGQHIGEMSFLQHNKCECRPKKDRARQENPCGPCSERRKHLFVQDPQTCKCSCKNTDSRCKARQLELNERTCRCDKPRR
B1: binding was characterised by a dissociation constant (Kd) of 400 pM.

Consider B2, for which the Kd worked out at 25 pM. This Kd lies about 16-fold lower than the previous one.

Turning to B3, the Kd was determined as 10 pM.

In turn, B4 yielded a Kd of 4 pM.

In turn, B5 gave a Kd of 20 pM.

Consider B6, for which the affinity, expressed as Kd, was 3 pM.

In turn, B7 gave a Kd of 27 pM.

Turning to B8, the Kd was 10 pM.

On to B9, for which the Kd was 20 pM.

Molecule B10 came in with a Kd of 40 pM.

B11: the Kd was 9 pM.

Turning to B12, the affinity, expressed as Kd, was 32000 pM.

Molecule B13 yielded a Kd of 25 pM.

In the case of B14, the affinity, expressed as Kd, was 2 pM.

As for B15, the Kd stood at 10 pM. Against the preceding molecule, the Kd is about 5-fold higher.

As to B16, the affinity, expressed as Kd, was 10 pM.

Turning to B17, the Kd stood at 60 pM. This Kd is about 6-fold higher than that of the molecule before.

Consider B18, for which the Kd came out at 6 pM.
